Test results as given in patent US20120269734.

B1: active human recombinant MMP-2 (CalBiochem) (protein)
chain: YNFFPRKPKWDKNQITYRIIGYTPDLDPETVDDAFARAFQVWSDVTPLRFSRIHDGEADIMINFGRWEHGDGYPFDGKDGLLAHAFAPGTGVGGDSHFDDDELWTLGEGQVVRVKYGNADGEYCKFPFLFNGKEYNSCTDTGRSDGFLWCSTTYNFEKDGKYGFCPHEALFTMGGNAEGQPCKFPFRFQGTSYDSCTTEGRTDGYRWCGTTEDYDRDKKYGFCPETAMSTVGGNSEGAPCVFPFTFLGNKYESCTSAGRSDGKMWCATTANYDDDRKWGFCPDQGYSLFLVAAHEFGHAMGLEHSQDPGALMAPIYTYTKNFRLSQDDIKGIQELYGASPDIDLGTGPTPTLGPVTPEICKQDIVFDGIAQIRGEIFFFKDRFIWRTVTPRDKPMGPLLVATFWPELPEKIDAVYEAPQEEKAVFFAGNEYWIYSASTLERGYPKPLTSLGLPPDVQRVDAAFNWSKNKKTYIFAGDKFWRYNEVKKKMDPGFPKLIADAWNAIPDNLDAVVDLQGGGHSYFFKGAYYLKLENQSLKSVKFGSIKSDWLGC

What was measured:
[1] = tested on: kemptide (substrate of PKA), conjugated to the bioluminescent protein Luc8 as in the method of FIG. 21b
[2] = molecular target: T1, Luc8 fusion protein (Luc8-PLGVR-6xHis)
T1 chain: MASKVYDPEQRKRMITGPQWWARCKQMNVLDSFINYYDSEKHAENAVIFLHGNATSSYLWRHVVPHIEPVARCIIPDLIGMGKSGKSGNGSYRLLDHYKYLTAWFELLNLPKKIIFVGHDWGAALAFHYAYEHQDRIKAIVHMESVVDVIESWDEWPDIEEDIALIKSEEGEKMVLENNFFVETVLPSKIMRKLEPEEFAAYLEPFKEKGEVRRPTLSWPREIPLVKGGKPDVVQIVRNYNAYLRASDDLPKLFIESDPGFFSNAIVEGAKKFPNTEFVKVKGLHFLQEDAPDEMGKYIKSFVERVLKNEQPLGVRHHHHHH

Molecule | BRET ratio after the PKA phosphorylation (method of FIG. 21b) [1] | BRET ratio before the PKA phosphorylation (method of FIG. 21b) [1] | BRET ratio after 24 hours at 22° C., MMP-2 at 20 ng/mL (~300 pM) [2] | BRET ratio at the start, MMP-2 at 20 ng/mL (~300 pM) [2] | BRET ratio before the MMP-2 cleavage (t=0); fusion protein 16 µM, MMP-2 10 µg/mL, 22° C. [2] | BRET ratio within 30 minutes of incubation with MMP-2 (10 µg/mL) [2] | BRET ratio within 2 hours of incubation with MMP-2 (10 µg/mL) [2] | NuPAGE assay [2] | decrease of the BRET ratio after 24 hours at 22° C. with MMP-2 at 20 ng/mL (~300 pM) [2] | gel electrophoresis (4-12% Bis-Tris denaturing gel, Coomassie) [2]
Protein Kinase A (PKA) | The BRET ratio was increased from 0.15 to 0.47 after the PKA phosphorylation of the substrate kemptide | The BRET ratio was increased from 0.15 to 0.47 after the PKA phosphorylation of the substrate kemptide |  |  |  |  |  |  |  | 
B1 |  |  | the BRET ratio decreased by ~20% from 1.6 to 1.3 for a concentration of MMP-2 of 20 ng/mL (~300 pM) | the BRET ratio decreased by ~20% from 1.6 to 1.3 for a concentration of MMP-2 of 20 ng/mL (~300 pM) | the BRET ratio was 1.64 | Within 30 minutes, the BRET ratio dropped to 0.62 | the reaction was nearly complete within 2 hours with a BRET ratio of 0.21 | NuPAGE assay detected a protein product with a smaller size, confirming the hydrolysis by MMP-2 | the BRET ratio decreased by ~20% from 1.6 to 1.3 for a concentration of MMP-2 of 20 ng/mL (~300 pM) | Gel electrophoresis analysis confirmed the cleavage of the fusion protein by MMP-2
